Tests used:
[1] = system: HeLa Kyoto; experiment: thermal stability score vs G1/S (z-score of summed log2 fold changes over temperatures); higher = more thermally stable than in G1/S
[2] = system: HeLa Kyoto; experiment: solubility in G1/S (NP-40 vs SDS abundance) (log2 ratio); higher = more soluble; conditions: cell cycle stage: G1/S
[3] = system: HeLa Kyoto; experiment: solubility change mitosis vs G1/S (difference of NP-40 vs SDS log2 ratios) (log2 ratio difference); higher = more soluble in mitosis
[4] = system: HeLa Kyoto; experiment: melting temperature (median over replicates), in situ; higher = more thermally stable
[5] = cell cycle stage: early G1 (4.5 h after nocodazole release)
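For melting temperature (median over replicates), in situ in this document: HeLa Kyoto cells synchronized by double thymidine or nocodazole block, proteins quantified by TMT10plex mass spectrometry, three independent biological replicates.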
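For solubility change mitosis vs G1/S (difference of NP-40 vs SDS log2 ratios) in this document: synchronized HeLa Kyoto cells (double thymidine block for G1/S, nocodazole release for mitosis), protein amounts in NP-40 versus SDS lysates quantified by mass spectrometry, three biological replicates.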
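For solubility in G1/S (NP-40 vs SDS abundance) in this document: HeLa Kyoto cells arrested at G1/S by double thymidine block, proteins quantified by TMT10plex mass spectrometry in mild NP-40 versus SDS extracts, three biological replicates.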
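For thermal stability score vs G1/S (z-score of summed log2 fold changes over temperatures) in this document: synchronized HeLa Kyoto cells, proteins quantified by TMT10plex mass spectrometry, three biological replicates, mitosis taken 0.5 h after nocodazole release, G1/S directly after double thymidine block.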

Row | Sequence | thermal stability score [1, 5] | thermal stability score ([1]; cell cycle stage: mitosis) | solubility in G1/S (log2) [2] | solubility change mitosis (log2) [3] | melting temperature ([4]; cell cycle stage: G1/S) [°C] | melting temperature ([4]; cell cycle stage: mitosis) [°C]
1 | MDPLGDTLRRLREAFHAGRTRPAEFRAAQLQGLGRFLQENKQLLHDALAQDLHKSAFESEVSEVAISQGEVTLALRNLRAWMKDERVPKNLATQLDSAFIRKEPFGLVLIIAPWNYPLNLTLVPLVGALAAGNCVVLKPSEISKNVEKILAEVLPQYVDQSCFAVVLGGPQETGQLLEHRFDYIFFTGSPRVGKIVMTAAAKHLTPVTLELGGKNPCYVDDNCDPQTVANRVAWFRYFNAGQTCVAPDYVLCSPEMQERLLPALQSTITRFYGDDPQSSPNLGRIINQKQFQRLRALLGCGRVAIGGQSDESDRYIAPTVLVDVQEMEPVMQEEIFGPILPIVNVQSLDEAIEFINRREKPLALYAFSNSSQVVKRVLTQTSSGGFCGNDGFMHMTLASLPFGGVGASGMGRYHGKFSFDTFSHHRACLLRSPGMEKLNALRYPPQSPRRLRMLLVAMEAQGCSCTLL [ALDH3B1] | 0.958 | 1.14 | 0.252 | -0.152 | 52.2 | 51.8
2 | MDPQRSPLLEVKGNIELKRPLIKAPSQLPLSGSRLKRRPDQMEDGLEPEKKRTRGLGATTKITTSHPRVPSLTTVPQTQGQTTAQKVSKKTGPRCSTAIATGLKNQKPVPAVPVQKSGTSGVPPMAGGKKPSKRPAWDLKGQLCDLNAELKRCRERTQTLDQENQQLQDQLRDAQQQVKALGTERTTLEGHLAKVQAQAEQGQQELKNLRACVLELEERLSTQEGLVQELQKKQVELQEERRGLMSQLEEKERRLQTSEAALSSSQAEVASLRQETVAQAALLTEREERLHGLEMERRRLHNQLQELKGNIRVFCRVRPVLPGEPTPPPGLLLFPSGPGGPSDPPTRLSLSRSDERRGTLSGAPAPPTRHDFSFDRVFPPGSGQDEVFEEIAMLVQSALDGYPVCIFAYGQTGSGKTFTMEGGPGGDPQLEGLIPRALRHLFSVAQELSGQGWTYSFVASYVEIYNETVRDLLATGTRKGQGGECEIRRAGPGSEELTVTNARYVPVSCEKEVDALLHLARQNRAVARTAQNERSSRSHSVFQLQISGEHSSRGLQCGAPLSLVDLAGSERLDPGLALGPGERERLRETQAINSSLSTLGLVIMALSNKESHVPYRNSKLTYLLQNSLGGSAKMLMFVNISPLEENVSESLNSLRFASKVNQCVIGTAQANRK [KIFC1] | 3.16 | 4.4 | 0.0107 | 0.12 | 47.4 | 48.8
3 | MDQEPVGGVERGEAVAASGAAAAAAFGESAGQMSNERGFENVELGVIGKKKKVPRRVIHFVSGETMEEYSTDEDEVDGLEKKDVLPTVDPTKLTWGPYLWFYMLRAATSTLSVCDFLGEKIASVLGISTPKYQYAIDEYYRMKKEEEEEEEENRMSEEAEKQYQQNKLQTDSIVQTDQPETVISSSFVNVNFEMEGDSEVIMESKQNPVSVPP [FAM177A1] | 0.512 | -0.398 | 0.0523 | -0.0492 | 54.5 | 56.5
4 | MDRGTLPLAVALLLASCSLSPTSLAETVHCDLQPVGPERGEVTYTTSQVSKGCVAQAPNAILEVHVLFLEFPTGPSQLELTLQASKQNGTWPREVLLVLSVNSSVFLHLQALGIPLHLAYNSSLVTFQEPPGVNTTELPSFPKTQILEWAAERGPITSAAELNDPQSILLRLGQAQGSLSFCMLEASQDMGRTLEWRPRTPALVRGCHLEGVAGHKEAHILRVLPGHSAGPRTVTVKVELSCAPGDLDAVLILQGPPYVSWLIDANHNMQIWTTGEYSFKIFPEKNIRGFKLPDTPQGLLGEARMLNASIVASFVELPLASIVSLHASSCGGRLQTSPAPIQTTPPKDTCSPELLMSLIQTKCADDAMTLVLKKELVAHLKCTITGLTFWDPSCEAEDRGDKFVLRSAYSSCGMQVSASMISNEAVVNILSSSSPQRKKVHCLNMDSLSFQLGLYLSPHFLQASNTIEPGQQSFVQVRVSPSVSEFLLQLDSCHLDLGPEGGTVELIQGRAAKGNCVSLLSPSPEGDPRFSFLLHFYTVPIPKTGTLSCTVALRPKTGSQDQEVHRTVFMRLNIISPDLSGCTSKGLVLPAVLGITFGAFLIGALLTAALWYIYSHTRSPSKREPVVAVAAPASSESSSTNHSIGSTQSTPCSTSSMA [ENG] | -1.8 | -2.37 | 0.178 | -0.131 | 56.1 | 55.6
5 | MDRPLSSSAEAEEELEWQVASRRRKAWAKCRSSWQASETEDLSTEATTQDEEEDEEEDLPGAQLPAAGGRGNVPNEKIAIWLKDCRTPLGASLDEQSSSTLKGVLVRNGGSFEDDLSLGAEANHLHESDAQIENCNNILAKERRLQFHQKGRSMNSTGSGKSSGTVSSVSELLELYEEDPEEILYNLGFGRDEPDIASKIPSRFFNSSSFAKGIDIKVFLSAQMQRMEVENPNYALTSRFRQIEVLTTVANAFSSLYSQVSGTPLQRIGSMSSVTSNKETDPPPPLTRSNTANRLMKTLSKLNLCVDKTEKGESSSPSPSAEKGKILNVSVIEESGNKNDQKSQKIMKKKESSSMLATVKEEVSGSSAAVTENADSDRISDEANSNFNQGTENEQSKETQSHESKLGEESGIVESKLDSDFNISSHSELENSSELKSVHISTPEKEPCAPLTIPSIRNIMTQQKDSFEMEEVQSTEGEAPHVPATYQLGLTKSKRDHLLRTASQHSDSSGFAEDSTDCLSLNHLQVQESLQAMGSSADSCDSETTVTSLGEDLATPTAQDQPYFNESEEESLVPLQKGLEKAAAVADKRKSGSQDFPQCNTIENTGTKQSTCSPGDHIIEITEVEEDLFPAETVELLREASAESDVGKSSESEFTQYTTHHILKSLASIEAKCSDMSSENTTGPPSSMDRVNTALQRAQMKVCSLSNQRMGRSLLKSKDLLKQRYLFAKAGYPLRRSQSLPTTLLSPVRVVSSVNVRLSPGKETRCSPPSFTYKYTPEEEQELEKRVMEHDGQSLVKSTIFISPSSVKKEEAPQSEAPRVEECHHGRTPTCSRLAPPPMSQSTCSLHSIHSEWQERPLCEHTRTLSTHSVPNISGATCSAFASPFGCPYSHRHATYPYRVCSVNPPSAIEMQLRRVLHDIRNSLQNLSQYPMMRGPDPAAAPYSTQKSSVLPLYENTFQELQVMRRSLNLFRTQMMDLELAMLRQQTMVYHHMTEEERFEVDQLQGLRNSVRMELQDLELQLEERLLGLEEQLRAVRMPSPFRSSALMGMCGSRSADNLSCPSPLNVMEPVTELMQEQSYLKSELGLGLGEMGFEIPPGESSESVFSQATSESSSVCSGPSHANRRTGVPSTASVGKSKTPLVARKKVFRASVALTPTAPSRTGSVQTPPDLESSEEVDAAEGAPEVVGPKSEVEEGHGKLPSMPAAEEMHKNVEQDELQQVIREIKESIVGEIRREIVSGLLAAVSSSKASNSKQDYH [SSFA2] | -1.42 | -0.947 | -0.81 | 0.802 | 50.8 | 49.8
6 | MDRSKENCISGPVKATAPVGGPKRVLVTQQFPCQNPLPVNSGQAQRVLCPSNSSQRIPLQAQKLVSSHKPVQNQKQKQLQATSVPHPVSRPLNNTQKSKQPLPSAPENNPEEELASKQKNEESKKRQWALEDFEIGRPLGKGKFGNVYLAREKQSKFILALKVLFKAQLEKAGVEHQLRREVEIQSHLRHPNILRLYGYFHDATRVYLILEYAPLGTVYRELQKLSKFDEQRTATYITELANALSYCHSKRVIHRDIKPENLLLGSAGELKIADFGWSVHAPSSRRTTLCGTLDYLPPEMIEGRMHDEKVDLWSLGVLCYEFLVGKPPFEANTYQETYKRISRVEFTFPDFVTEGARDLISRLLKHNPSQRPMLREVLEHPWITANSSKPSNCQNKESASKQS [AURKA] | -0.0408 | -0.506 | -0.00432 | -0.0266 | 50 | 50.8
7 | MDRTCEERPAEDGSDEEDPDSMEAPTRIRDTPEDIVLEAPASGLAFHPARDLLAAGDVDGDVFVFSYSCQEGETKELWSSGHHLKACRAVAFSEDGQKLITVSKDKAIHVLDVEQGQLERRVSKAHGAPINSLLLVDENVLATGDDTGGICLWDQRKEGPLMDMRQHEEYIADMALDPAKKLLLTASGDGCLGIFNIKRRRFELLSEPQSGDLTSVTLMKWGKKVACGSSEGTIYLFNWNGFGATSDRFALRAESIDCMVPVTESLLCTGSTDGVIRAVNILPNRVVGSVGQHTGEPVEELALSHCGRFLASSGHDQRLKFWDMAQLRAVVVDDYRRRKKKGGPLRALSSKTWSTDDFFAGLREEGEDSMAQEEKEETGDDSD [WDR55] | -0.454 | -1.73 | -0.0916 | -0.0465 | 51.3 | 51.4
8 | MDSAGQDINLNSPNKGLLSDSMTDVPVDTGVAARTPAVEGLTEAEEEELRAELTKVEEEIVTLRQVLAAKERHCGELKRRLGLSTLGELKQNLSRSWHDVQVSSAYVKTSEKLGEWNEKVTQSDLYKKTQETLSQAGQKTSAALSTVGSAISRKLGDMRNSATFKSFEDRVGTIKSKVVGDRENGSDNLPSSAGSGDKPLSDPAPF [TPD52L2] | -4.67 | -5.07 | 0.127 | 0.6 | 53 | 52.7
9 | MDSEAFQSARDFLDMNFQSLAMKHMDLKQMELDTAAAKVDELTKQLESLWSDSPAPPGPQAGPPSRPPRYSSSSIPEPFGSRGSPRKAATDGADTPFGRSESAPTLHPYSPLSPKGRPSSPRTPLYLQPDAYGSLDRATSPRPRAFDGAGSSLGRAPSPRPGPGPLRQQGPPTPFDFLGRAGSPRGSPLAEGPQAFFPERGPSPRPPATAYDAPASAFGSSLLGSGGSAFAPPLRAQDDLTLRRRPPKAWNESDLDVAYEKKPSQTASYERLDVFARPASPSLQLLPWRESSLDGLGGTGKDNLTSATLPRNYKVSPLASDRRSDAGSYRRSLGSAGPSGTLPRSWQPVSRIPMPPSSPQPRGAPRQRPIPLSMIFKLQNAFWEHGASRAMLPGSPLFTRAPPPKLQPQPQPQPQPQSQPQPQLPPQPQTQPQTPTPAPQHPQQTWPPVNEGPPKPPTELEPEPEIEGLLTPVLEAGDVDEGPVARPLSPTRLQPALPPEAQSVPELEEVARVLAEIPRPLKRRGSMEQAPAVALPPTHKKQYQQIISRLFHRHGGPGPGGPEPELSPITEGSEARAGPPAPAPPAPIPPPAPSQSSPPEQPQSMEMRSVLRKAGSPRKARRARLNPLVLLLDAALTGELEVVQQAVKEMNDPSQPNEEGITALHNAICGANYSIVDFLITAGANVNSPDSHGWTPLHCAASCNDTVICMALVQHGAAIFATTLSDGATAFEKCDPYREGYADCATYLADVEQSMGLMNSGAVYALWDYSAEFGDELSFREGESVTVLRRDGPEETDWWWAALHGQEGYVPRNYFGLFPRVKPQRSKV [PPP1R13L] | -0.761 | 0.0817 | 0.09 | 0.0483 | 51.2 | 51.5
10 | MDSRVSELFGGCCRPGGGPAVGGTLKARGAGSSSGCGGPKGKKKNGRNRGGKANNPPYLPPEAEDGNIEYKLKLVNPSQYRFEHLVTQMKWRLQEGRGEAVYQIGVEDNGLLVGLAEEEMRASLKTLHRMAEKVGADITVLREREVDYDSDMPRKITEVLVRKVPDNQQFLDLRVAVLGNVDSGKSTLLGVLTQGELDNGRGRARLNLFRHLHEIQSGRTSSISFEILGFNSKGEVVNYSDSRTAEEICESSSKMITFIDLAGHHKYLHTTIFGLTSYCPDCALLLVSANTGIAGTTREHLGLALALKVPFFIVVSKIDLCAKTTVERTVRQLERVLKQPGCHKVPMLVTSEDDAVTAAQQFAQSPNVTPIFTLSSVSGESLDLLKVFLNILPPLTNSKEQEELMQQLTEFQVDEIYTVPEVGTVVGGTLSSGICREGDQLVVGPTDDGCFLELRVCSIQRNRSACRVLRAGQAATLALGDFDRALLRKGMVMVSPEMNPTICSVFEAEIVLLFHATTFRRGFQVTVHVGNVRQTAVVEKIHAKDKLRTGEKAVVRFRFLKHPEYLKVGAKLLFREGVTKGIGHVTDVQAITAGEAQANMGF [GTPBP2] | 0.507 | 0.439 | -0.711 | 0.127 | 49.9 | 50.1

Source: the supplement of paper PMC5998384
